Measurements reported in patent publication US20090022714A1 (published 2009).
Values belong to the binder of their own block, whether it stands above or below them.

Assays:
[1] = target: human KDR (VEGFR-2), cell surface-expressed (HUVEC) (human, UniProt P35968 20-1356); assay: cell-based or functional assay
[2] = target: T1, soluble fusion protein Flk-1-AP (murine, UniProt P35918 20-762); assay: ELISA on captured Flk-1-AP
T1 construct: expressed in NIH 3T3; not shown: alkaline phosphatase (AP)
T1 sequence (P35918 20-762): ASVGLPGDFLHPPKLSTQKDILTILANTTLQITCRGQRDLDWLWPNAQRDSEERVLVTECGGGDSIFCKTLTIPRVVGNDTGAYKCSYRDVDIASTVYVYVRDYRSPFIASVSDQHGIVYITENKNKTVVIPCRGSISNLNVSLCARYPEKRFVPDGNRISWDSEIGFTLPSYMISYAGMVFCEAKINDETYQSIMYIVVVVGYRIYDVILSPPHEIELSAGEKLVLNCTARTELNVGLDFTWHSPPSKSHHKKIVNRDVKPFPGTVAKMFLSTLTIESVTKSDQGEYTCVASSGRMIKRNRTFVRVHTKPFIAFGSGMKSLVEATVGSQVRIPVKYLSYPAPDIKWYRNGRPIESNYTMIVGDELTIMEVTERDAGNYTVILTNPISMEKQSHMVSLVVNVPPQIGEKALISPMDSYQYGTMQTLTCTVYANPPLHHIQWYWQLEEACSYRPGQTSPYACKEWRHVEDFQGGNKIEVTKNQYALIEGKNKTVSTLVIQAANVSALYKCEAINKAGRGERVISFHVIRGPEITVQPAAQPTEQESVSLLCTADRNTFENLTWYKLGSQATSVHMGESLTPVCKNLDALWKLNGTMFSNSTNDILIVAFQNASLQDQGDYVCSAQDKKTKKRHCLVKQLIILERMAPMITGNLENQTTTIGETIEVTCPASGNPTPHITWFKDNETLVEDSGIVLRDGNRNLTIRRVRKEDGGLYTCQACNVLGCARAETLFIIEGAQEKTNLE

[3] = target: T2, soluble fusion protein KDR (VEGFR-2)-AP (human, UniProt P35968 20-764); assay: BIAcore, KDR-AP immobilized
T2 construct: extracellular domain; expressed in NIH 3T3 cells; also called KDR-AP; KDR (VEGFR-2)-alkaline phosphatase fusion protein; not shown: human placental alkaline phosphatase (AP), vector AP-Tag
T2 sequence (P35968 20-764): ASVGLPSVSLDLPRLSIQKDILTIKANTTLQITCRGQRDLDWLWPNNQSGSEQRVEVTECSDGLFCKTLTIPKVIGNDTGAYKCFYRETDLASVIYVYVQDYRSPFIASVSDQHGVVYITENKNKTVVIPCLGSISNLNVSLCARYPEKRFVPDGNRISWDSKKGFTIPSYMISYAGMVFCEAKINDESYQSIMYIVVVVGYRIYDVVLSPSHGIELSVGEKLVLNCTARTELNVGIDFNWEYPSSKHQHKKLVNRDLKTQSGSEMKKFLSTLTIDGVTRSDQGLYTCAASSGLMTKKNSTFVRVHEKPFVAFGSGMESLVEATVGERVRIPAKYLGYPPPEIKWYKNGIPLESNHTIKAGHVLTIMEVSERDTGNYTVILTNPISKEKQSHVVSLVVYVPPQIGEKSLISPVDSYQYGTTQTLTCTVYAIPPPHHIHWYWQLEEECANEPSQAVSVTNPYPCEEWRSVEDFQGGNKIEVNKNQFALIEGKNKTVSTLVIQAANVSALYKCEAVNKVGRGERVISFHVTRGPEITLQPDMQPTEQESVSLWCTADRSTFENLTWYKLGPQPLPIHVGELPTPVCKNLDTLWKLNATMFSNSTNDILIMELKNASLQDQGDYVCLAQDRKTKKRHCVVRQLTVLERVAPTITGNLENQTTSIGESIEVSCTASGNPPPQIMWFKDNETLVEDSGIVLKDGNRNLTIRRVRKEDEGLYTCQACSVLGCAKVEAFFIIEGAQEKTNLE
Method: The binding kinetics of soluble Fab proteins to KDR (VEGFR-2) were measured by surface plasmon resonance using a BIAcore biosensor (Pharmacia Biosensor). […] Sensorgrams were obtained at each concentration and were evaluated using a program, BIA Evaluation 2.0, to determine the rate constants kon and koff Kd was calculated from the ratio of rate constants koff/kon.

[4] = target: T2, soluble fusion protein KDR (VEGFR-2)-AP; assay: competitive ELISA: KDR-AP binding to immobilized VEGF165
Method: In a direct binding assay, various amounts of soluble Fab proteins were added to KDR (VEGFR-2)-coated 96-well Maxi-sorp microtiter plates and incubated at RT for 1 h, after which the plates were washed 3 times with PBST. The plates were then incubated at RT for 1 h with 100 Φl of a rabbit anti-human Fab antibody-HRP conjugate (Jackson ImmunoResearch Laboratory Inc., West Grove, Pa.). The plates were washed and developed following the procedure described above for the phage ELISA. […] The mixtures were then transferred to 96-well microtiter plates precoated with VEGF₁₆₅ (200 ng/well) and incubated at RT for an additional 2 h, after which the plates were washed 5 times and the substrate for AP (p-nitrophenyl phosphate, Sigma) was added. Absorbance at 405 nm was measured to quantify the bound KDR (VEGFR-2)-AP molecules (8).

[5] = target: human KDR (VEGFR-2), construct not stated (human, UniProt P35968 20-764, limits assumed); assay: selection from second Fab phage library
human KDR (VEGFR-2), construct not stated, sequence (P35968 20-764 limits assumed): as the sequence (P35968 20-764) above

[6] = target: T1, soluble fusion protein Flk-1-AP; assay: blocking of VEGF binding to Flk-1

human KDR (VEGFR-2), cell surface-expressed (HUVEC), sequence (P35968 20-1356): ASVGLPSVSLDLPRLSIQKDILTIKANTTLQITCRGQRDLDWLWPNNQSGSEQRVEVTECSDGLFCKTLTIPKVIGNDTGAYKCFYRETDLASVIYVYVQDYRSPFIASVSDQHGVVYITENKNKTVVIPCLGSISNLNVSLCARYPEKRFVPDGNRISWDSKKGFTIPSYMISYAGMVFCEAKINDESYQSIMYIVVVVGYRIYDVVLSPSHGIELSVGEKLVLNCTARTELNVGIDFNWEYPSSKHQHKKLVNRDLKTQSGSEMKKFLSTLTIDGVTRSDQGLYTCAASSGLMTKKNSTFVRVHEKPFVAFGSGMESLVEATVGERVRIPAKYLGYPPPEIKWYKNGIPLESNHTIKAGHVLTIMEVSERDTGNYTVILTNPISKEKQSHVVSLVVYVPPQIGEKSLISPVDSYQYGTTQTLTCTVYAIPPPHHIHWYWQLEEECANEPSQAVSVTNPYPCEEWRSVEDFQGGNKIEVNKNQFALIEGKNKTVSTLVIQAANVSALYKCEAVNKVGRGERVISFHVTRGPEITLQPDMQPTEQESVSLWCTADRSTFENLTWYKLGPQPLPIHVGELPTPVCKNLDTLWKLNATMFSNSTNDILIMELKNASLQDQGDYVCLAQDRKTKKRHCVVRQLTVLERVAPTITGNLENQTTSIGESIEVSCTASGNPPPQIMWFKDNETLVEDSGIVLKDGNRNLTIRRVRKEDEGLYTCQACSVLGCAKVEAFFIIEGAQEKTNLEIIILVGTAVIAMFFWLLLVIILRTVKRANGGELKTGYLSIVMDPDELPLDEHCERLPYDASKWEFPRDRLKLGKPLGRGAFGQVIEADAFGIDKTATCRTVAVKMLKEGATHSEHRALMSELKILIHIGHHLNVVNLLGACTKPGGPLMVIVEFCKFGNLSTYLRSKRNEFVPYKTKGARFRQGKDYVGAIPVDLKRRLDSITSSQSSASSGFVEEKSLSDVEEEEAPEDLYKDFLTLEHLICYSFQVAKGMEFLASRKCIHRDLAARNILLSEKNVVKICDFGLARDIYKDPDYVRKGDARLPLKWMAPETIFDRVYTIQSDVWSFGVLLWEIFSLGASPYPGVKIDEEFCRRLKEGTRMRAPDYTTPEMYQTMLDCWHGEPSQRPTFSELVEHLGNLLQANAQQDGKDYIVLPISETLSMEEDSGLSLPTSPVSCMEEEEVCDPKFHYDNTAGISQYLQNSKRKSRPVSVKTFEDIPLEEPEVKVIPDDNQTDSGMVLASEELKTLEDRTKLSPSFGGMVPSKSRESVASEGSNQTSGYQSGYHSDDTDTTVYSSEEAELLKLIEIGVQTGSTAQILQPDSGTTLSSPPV

EC50, inhibition of VEGF-stimulated [3H]-TdR incorporation in HUVEC [1]: ~0.5 nM
binding result [2]: no binding
Kd [3]: 1.97 nM
koff [3]: 0.000538 s⁻¹
kon [3]: 273000 M⁻¹ s⁻¹
IC50 [4]: ~2 nM
B1: human anti-KDR (VEGFR-2) Fab D2C6 (Fab, V domains shown)
VH: EVQLVQSGGGLVKPGGSLRLSCAASGFTFSSYSMNWVRQAPGKGLEWVSSISSSSSYIYYADSVKGRFTISRDNAKNSLYLQMNSLRAEDTAVYYCARVTDAFDIWGQGTMVTVSS
VL: EIVMTQSPATLSLSPGERATLSCRASQSVSSYLAWYQQKPGQAPRLLIYDSSNRATGIPARFSGSGSGTDFTLTISSLEPEDFATYYCLQHNTFPPTFGQGTKVEIK
notes: soluble Fab from E. coli HB2151; also called Hu-2C6 Fab

EC50, inhibition of VEGF-stimulated [3H]-TdR incorporation in HUVEC [1]: ~0.5 nM
binding result [2]: no binding
Kd [3]: 2.76 nM
koff [3]: 0.000153 s⁻¹
kon [3]: 55500 M⁻¹ s⁻¹
IC50 [4]: ~2 nM
B2: human anti-KDR (VEGFR-2) Fab D1H4 (Fab, V domains shown)
VH: EVQLVQSGGGLVKPGGSLRLSCAASGFTFSSYSMNWVRQAPGKGLEWVSSISSSSSYIYYADSVKGRFTISRDNAKNSLYLQMNSLRAEDTAVYYCARVTDAFDIWGQGTMVTVSS
VL: QSALTQPASLSGSPGQSITISCAGTTTDLTYYDLVSWYQQHPGQAPKLVIYDGNKRPSGVSNRFSGSKSGNTASLTISGLQAEDEADYYCNSYVSSRFYVFGTGTKVTVL
notes: soluble Fab from E. coli HB2151; also called Hu-1H4 Fab

binding result [5]: binds
B3: human Fab SB5 (Fab, V domains shown)
VH: EVQLVQSGGGLVKPGGSLRLSCAASGFTFSSYSMNWVRQAPGKGLEWVSSISSSSSYIYYADSVKGRFTISRDNAKNSLYLQMNSLRAEDTAVYYCARVTDAFDIWGQGTMVTVSS
VL: QAVLTQPSSVSGAPGQRVTISCTGQSSNIGADYDVHWYQQFPGTAPKLLIYGHNNRPSGVPDRFSGSKSGTSVSLVISGLQAEDEADYYCQSYDSSLSGLVFGGGTKVTVL
notes: from the second library

binding result [5]: binds
B4: human Fab SF2 (Fab, V domains shown)
VH: EVQLVQSGGGLVKPGGSLRLSCAASGFTFSSYSMNWVRQAPGKGLEWVSSISSSSSYIYYADSVKGRFTISRDNAKNSLYLQMNSLRAEDTAVYYCARVTDAFDIWGQGTMVTVSS
VL: QSVVTQPPSVSGAPGQRVTISCTGSSSNIGTGYDVHWYQQVPGSAPKLLIYAYTNRPSGVPDRFSGSKSGMSASLVIGGLQAEDEADYYCQSFDDSLNGLVFGPGTSVTVL
notes: from the second library

binding result [5]: binds
B5: human Fab SB10 (Fab, V domains shown)
VH: EVQLVQSGGGLVKPGGSLRLSCAASGFTFSSYSMNWVRQAPGKGLEWVSSISSSSSYIYYADSVKGRFTISRDNAKNSLYLQMNSLRAEDTAVYYCARVTDAFDIWGQGTMVTVSS
VL: QSALTQPASVSGSRGQSITLSCTGSSTDVGNYNYISWYQQHPGQAPKLLIYDVTSRPSGVSDRFSGSKSGLTASLTISGLQPEDEADYYCNSYSATDTLVFGGGTKLTVL
notes: from the second library

binding result [5]: binds
B6: human Fab SC7 (Fab, V domains shown)
VH: EVQLVQSGGGLVKPGGSLRLSCAASGFTFSSYSMNWVRQAPGKGLEWVSSISSSSSYIYYADSVKGRFTISRDNAKNSLYLQMNSLRAEDTAVYYCARVTDAFDIWGQGTMVTVSS
VL: DIQLTQSPSSVSASVGDSVTITCRASQDISSWLAWYQQKPGEAPKLLIYAASLLQSGVPSRFSGSGSGTDFALTINSLQPEDFATYFCQQADSFPPTFGQGTRLEIK
notes: from the second library

binding result [5]: binds
B7: human Fab 1121 (Fab, V domains shown)
VH: EVQLVQSGGGLVKPGGSLRLSCAASGFTFSSYSMNWVRQAPGKGLEWVSSISSSSSYIYYADSVKGRFTISRDNAKNSLYLQMNSLRAEDTAVYYCARVTDAFDIWGQGTMVTVSS
VL: DIQMTQSPSSVSASIGDRVTITCRASQGIDNWLGWYQQKPGKAPKLLIYDASNLDTGVPSRFSGSGSGTYFTLTISSLQAEDFAVYFCQQAKAFPPTFGGGTKVDIK
notes: from the second library

EC50, inhibition of VEGF-stimulated [3H]-TdR incorporation in HUVEC [1]: ~0.8 nM
binding result [2]: no binding
Kd [3]: 3.93 nM
koff [3]: 0.000487 s⁻¹
kon [3]: 124000 M⁻¹ s⁻¹
IC50 [4]: ~2 nM
B8: human anti-KDR (VEGFR-2) Fab D2H2 (Fab, V domains shown)
VH: EVQLVQSGGGLVKPGGSLRLSCAASGFTFSSYSMNWVRQAPGKGLEWVSSISSSSSYIYYADSVKGRFTISRDNAKDSLYLQMNSLRAEDTAVYYCARVTDAFDIWGQGTMVTVSS
VL: DIQLTQSPSSVSASVGDRVTITCRASQGISSRLAWYQQKPGKAPKLLIYAASSLQTGVPSRFSGSGSGTDFTLTISSLQPEDFATYYCQQANRFPPTFGPGTKVDIK
notes: soluble Fab from E. coli HB2151; also called Hu-2H2 Fab

binding result [5]: binds
B9: human Fab SA1 (Fab, V domains shown)
VH: EVQLVQSGGGLVKPGGSLRLSCAASGFTFSSYSMNWVRQAPGKGLEWVSSISSSSSYIYYADSVKGRFTISRDNAKNSLYLQMNSLRAEDTAVYYCARVTDAFDIWGQGTMVTVSS
VL: QSVVTQPPSVSGAPGQRVTISCTGSHSNFGAGTDVHWYQHLPGTAPRLLIHGDSNRPSGVPDRFSGSRSGTSASLAITGLRVEDEADYYCQSYDYGLRGWVFGGGTKLTVL
notes: from the second library (D2C6 heavy chain with shuffled light chains)

binding result [5]: binds
B10: human Fab SD5 (Fab, V domains shown)
VH: EVQLVQSGGGLVKPGGSLRLSCAASGFTFSSYSMNWVRQAPGKGLEWVSSISSSSSYIYYADSVKGRFTISRDNAKNSLYLQMNSLRAEDTAVYYCARVTDAFDIWGQGTMVTVSS
VL: QSVVTQPPSVSGAPGQRVTISCSGSRSNIGAHYEVQWYQQFPGAAPKLLIYGDTNRPSGVPDRFSASHSGTSASLAITGLQAEDEADYYCQSYDTSLRGPVFGGGTKLTVL
notes: from the second library

binding result [5]: binds
B11: human Fab SD2 (Fab, V domains shown)
VH: EVQLVQSGGGLVKPGGSLRLSCAASGFTFSSYSMNWVRQAPGKGLEWVSSISSSSSYIYYADSVKGRFTISRDNAKNSLYLQMNSLRAEDTAVYYCARVTDAFDIWGQGTMVTVSS
VL: DIELTQSPSSVSASVGDRVTLTCRASQSIKRWLAWYQQKPGKAPRLLIYAASTLQSGVPSRFSGGGSGTDFTLTINSLQPEDFAIYYCQQANSFPPTFGPGTKVDIK
notes: from the second library

binding result [5]: binds
B12: human Fab SA3 (Fab, V domains shown)
VH: EVQLVQSGGGLVKPGGSLRLSCAASGFTFSSYSMNWVRQAPGKGLEWVSSISSSSSYIYYADSVKGRFTISRDNAKNSLYLQMNSLRAEDTAVYYCARVTDAFDIWGQGTMVTVSS
VL: DVVMTQSPSSLSASVGDRVTITCRASQNINNYLNWYQQKPGKAPKLLIYAASTLQSGVPSRFSGSGSGTDFTLTITSLQPEDSATYYCQQYSRYPPTFGGGTKVEIT
notes: from the second library

binding result [5]: binds
B13: human Fab SF7 (Fab, V domains shown)
VH: EVQLVQSGGGLVKPGGSLRLSCAASGFTFSSYSMNWVRQAPGKGLEWVSSISSSSSYIYYADSVKGRFTISRDNAKNSLYLQMNSLRAEDTAVYYCARVTDAFDIWGQGTMVTVSS
VL: QSVLTQPPSVSGAPGQRVTISCTGSHSNFGAGTDVHWYQHLPGTAPRLLIHGDTHRPSGVADRFSGSRSGASASLAITGLRVEDEADYYCQSYDYGLRGWVFGGGTKLTVL
notes: from the second library

EC50, inhibition of VEGF-stimulated [3H]-TdR incorporation in HUVEC [1]: ~15 nM
Kd [3]: 45.2 nM
koff [3]: 0.00187 s⁻¹
kon [3]: 41400 M⁻¹ s⁻¹
IC50 [6]: ~15 nM
IC50 [4]: ~20 nM
B14: human anti-KDR (VEGFR-2) Fab D1F7 (Fab, V domains shown)
VH: EVQLVQSGAEVKKPGASVKVSCKASGGTFSSYAISWVRQAPGQGLEWMGGIIPIFGTANYAQKFQGRVTFTADKSTSTAYMELRSLRSDDTAVYYCARGYDYYDSSGVASPFDYWGQGTLVTVSS
VL: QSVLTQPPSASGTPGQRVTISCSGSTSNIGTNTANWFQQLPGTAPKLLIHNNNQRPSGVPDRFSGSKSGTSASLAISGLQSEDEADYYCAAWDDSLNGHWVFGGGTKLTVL
notes: soluble Fab from E. coli HB2151; also called DIF7; Hu-1F7 Fab
